Data as given in paper PMC4450770 (2016).

Target: tetraubiquitin chain (Homo sapiens, UniProt P0CG48, tetraubiquitin chain, N-terminal Dylight550-labeled ubiquitin)
Assay: single-molecule TIRF dwell time

B1: 26S proteasome (protein)
chain 1: MVLESTMVCVDNSEYMRNGDFLPTRLQAQQDAVNIVCHSKTRSNPENNVGLITLANDCEVLTTLTPDTGRILSKLHTVQPKGKITFCTGIRVAHLALKHRQGKNHKMRIIAFVGSPVEDNEKDLVKLAKRLKKEKVNVDIINFGEEEVNTEKLTAFVNTLNGKDGTGSHLVTVPPGPSLADALISSPILAGEGGAMLGLGASDFEFGVDPSADPELALALRVSMEEQRQRQEEEARRAAAASAAEAGIATTGTEDSDDALLKMTISQQEFGRTGLPDLSSMTEEEQIAYAMQMSLQGAEFGQAESADIDASSAMDTSEPAKEEDDYDVMQDPEFLQSVLENLPGVDPNNEAIRNAMGSLASQATKDGKKDKKEEDKK
chain 2: TTSGALFPSLVPGSRGASNKYLVEFRAGKMSLKGTTVTPDKRKGLVYIQQTDDSLIHFCWKDRTSGNVEDDLIIFPDDCEFKRVPQCPSGRVYVLKFKAGSKRLFFWMQEPKTDQDEEHCRKVNEYLNNPPMPGALGASGSSGHELSALGGEGGLQSLLGNMSHSQLMQLIGPAGLGGLGGLGALTGPGLASLLGSSGPPGSSSSSSSRSQSAAVTPSSTTSSTRATPAPSAPAAASATSPSPAPSSGNGASTAASPTQPIQLSDLQSILATMNVPAGPAGGQQVDLASVLTPEIMAPILANADVQERLLPYLPSGESLPQTADEIQNTLTSPQFQQALGMFSAALASGQLGPLMCQFGLPAEAVEAANKGDVEAFAKAMQNNAKPEQKEGDTKDKKDEEEDMSLD
- Kd: 210 nM
